The target in assay [1] is RBM17–UHM (RBM17/ΔNΔG), from pETM11 (human). The assay is described as follows: ITC.
Assay [2] has as its target T1, full-length RBM17, from pETM11 (human, UniProt Q96I25 1-401).
T1 sequence (looked up): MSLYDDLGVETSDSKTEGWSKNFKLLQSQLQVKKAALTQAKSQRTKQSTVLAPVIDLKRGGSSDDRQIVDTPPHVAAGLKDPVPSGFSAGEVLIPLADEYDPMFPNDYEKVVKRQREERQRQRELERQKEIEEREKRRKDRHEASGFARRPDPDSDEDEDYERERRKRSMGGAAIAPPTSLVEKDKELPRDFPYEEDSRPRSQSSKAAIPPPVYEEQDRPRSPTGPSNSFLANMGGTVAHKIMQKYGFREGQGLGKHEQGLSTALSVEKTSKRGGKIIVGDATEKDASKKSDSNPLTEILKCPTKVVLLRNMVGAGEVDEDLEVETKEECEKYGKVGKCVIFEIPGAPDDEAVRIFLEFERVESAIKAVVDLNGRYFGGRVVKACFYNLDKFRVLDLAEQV
The assay is described as follows: NMR titration.

In assay [3] the target is T2, GST-RBM17 (human, UniProt Q96I25 1-401).
T2 sequence (looked up): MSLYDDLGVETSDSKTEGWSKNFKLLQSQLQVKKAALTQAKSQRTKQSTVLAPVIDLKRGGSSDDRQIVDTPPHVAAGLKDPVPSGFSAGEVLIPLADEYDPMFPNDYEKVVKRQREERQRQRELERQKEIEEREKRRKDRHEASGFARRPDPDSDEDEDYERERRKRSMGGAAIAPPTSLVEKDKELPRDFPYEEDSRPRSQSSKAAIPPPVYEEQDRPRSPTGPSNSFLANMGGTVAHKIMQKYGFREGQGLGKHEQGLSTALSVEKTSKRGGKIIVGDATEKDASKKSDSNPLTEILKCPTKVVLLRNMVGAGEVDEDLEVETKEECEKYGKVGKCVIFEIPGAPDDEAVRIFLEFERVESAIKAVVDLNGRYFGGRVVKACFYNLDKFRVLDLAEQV
Nature of the assay: pull-down.

With SAP30BP/ULM (domain or fragment), the dissociation constant (Kd) in assay [1] came to 34.4 µM.

B1: full-length SAP30BP, from pETM11 (natural protein, human, UniProt Q9UHR5 1-308, looked up)
chain: MAGKKNVLSSLAVYAEDSEPESDGEAGIEAVGSAAEEKGGLVSDAYGEDDFSRLGGDEDGYEEEEDENSRQSEDDDSETEKPEADDPKDNTEAEKRDPQELVASFSERVRNMSPDEIKIPPEPPGRCSNHLQDKIQKLYERKIKEGMDMNYIIQRKKEFRNPSIYEKLIQFCAIDELGTNYPKDMFDPHGWSEDSYYEALAKAQKIEMDKLEKAKKERTKIEFVTGTKKGTTTNATSTTTTTASTAVADAQKRKSKWDSAIPVTTIAQPTILTTTATLPAVVTVTTSASGSKTTVISAVGTIVKKAKQ
As to B1, the binding result in assay [2] is on record as “binds”.

B2: recombinant SAP30BP (GST tag removed) (natural protein, human, UniProt Q9UHR5 1-308, looked up)
chain: MAGKKNVLSSLAVYAEDSEPESDGEAGIEAVGSAAEEKGGLVSDAYGEDDFSRLGGDEDGYEEEEDENSRQSEDDDSETEKPEADDPKDNTEAEKRDPQELVASFSERVRNMSPDEIKIPPEPPGRCSNHLQDKIQKLYERKIKEGMDMNYIIQRKKEFRNPSIYEKLIQFCAIDELGTNYPKDMFDPHGWSEDSYYEALAKAQKIEMDKLEKAKKERTKIEFVTGTKKGTTTNATSTTTTTASTAVADAQKRKSKWDSAIPVTTIAQPTILTTTATLPAVVTVTTSASGSKTTVISAVGTIVKKAKQ
Take B2: the binding result in assay [3] is reported as “binds”.

The values above are taken from publication doi:10.1101/2022.12.30.522300 (bioRxiv, 2022).
